Data as given in PMC9352680, “A comprehensive thermodynamic model for RNA binding by the Saccharomyces cerevisiae Pumilio protein PUF4”.

T1: PUF4 RNA-binding domain (Saccharomyces cerevisiae, UniProt P25339 537-888)
T1 sequence: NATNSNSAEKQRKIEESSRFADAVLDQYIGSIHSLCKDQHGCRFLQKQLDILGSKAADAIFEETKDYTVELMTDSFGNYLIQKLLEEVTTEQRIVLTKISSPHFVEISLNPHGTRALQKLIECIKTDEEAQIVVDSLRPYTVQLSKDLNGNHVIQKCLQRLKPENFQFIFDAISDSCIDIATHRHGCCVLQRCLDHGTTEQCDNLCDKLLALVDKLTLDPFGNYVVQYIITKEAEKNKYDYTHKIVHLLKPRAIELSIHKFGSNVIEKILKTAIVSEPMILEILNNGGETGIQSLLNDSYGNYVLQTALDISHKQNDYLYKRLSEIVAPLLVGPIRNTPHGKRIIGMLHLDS

B1: Id_ii_S1_P4E.2_K4.1_C4.2_[T-1C]_H4.1_A4.1_F4.1_T4.2_[G10A]_[T11A] (ssRNA)
RNA: UCUCUUCCUGUAUAUUAAAUCUCUU
B2: Ib_S1_P4E.1_K4.1_C4.1_H4.1_[T3C]_A4.1_[T7C]_F4.1_T4.1 (ssRNA)
RNA: UCUCUUUGCAUACUAUCUCUU
B3: Id_ii_S1_P4E.2_K4.1_C4.2_[T-1C]_H4.1_A4.1_F4.1_T4.2_[G10A] (ssRNA)
RNA: UCUCUUCCUGUAUAUUAAUUCUCUU
B4: Id_ii_S1_P4E.2_K4.1_C4.2_[T-1C]_H4.1_A4.1_F4.1_T4.2 (ssRNA)
RNA: UCUCUUCCUGUAUAUUAGUUCUCUU
B5: Id_ii_S1_P4E.2_K4.1_C4.2_[T-1A]_H4.1_A4.1_F4.1_T4.2_[G10C]_[T11C] (ssRNA)
RNA: UCUCUUCAUGUAUAUUACCUCUCUU
B6: Id_ii_S1_P4E.2_K4.1_C4.2_[T-1A]_H4.1_A4.1_F4.1_T4.2_[G10C] (ssRNA)
RNA: UCUCUUCAUGUAUAUUACUUCUCUU
B7: Id_ii_S1_P4E.2_K4.1_C4.2_[T-1A]_H4.1_A4.1_F4.1_T4.2_[G10T]_[T11C] (ssRNA)
RNA: UCUCUUCAUGUAUAUUAUCUCUCUU
B8: Id_ii_S1_P4E.2_K4.1_C4.2_[T-1A]_H4.1_A4.1_F4.1_T4.2_[G10T] (ssRNA)
RNA: UCUCUUCAUGUAUAUUAUUUCUCUU
B9: Id_ii_S1_P4E.2_K4.1_C4.2_[T-1A]_H4.1_A4.1_F4.1_T4.2_[G10A]_[T11G] (ssRNA)
RNA: UCUCUUCAUGUAUAUUAAGUCUCUU
B10: Id_ii_S1_P4E.2_K4.1_C4.2_[T-1A]_H4.1_A4.1_F4.1_T4.2_[G10A]_[T11C] (ssRNA)
RNA: UCUCUUCAUGUAUAUUAACUCUCUU
B11: Id_ii_S1_P4E.2_K4.1_C4.2_[T-1A]_H4.1_A4.1_F4.1_T4.2_[G10A]_[T11A] (ssRNA)
RNA: UCUCUUCAUGUAUAUUAAAUCUCUU
B12: Id_ii_S1_P4E.2_K4.1_C4.2_[T-1A]_H4.1_A4.1_F4.1_T4.2_[G10A] (ssRNA)
RNA: UCUCUUCAUGUAUAUUAAUUCUCUU
B13: Ib_S1_P4E.1_K4.1_C4.1_H4.1_[A4C]_A4.1_[T5G]_F4.1_T4.1 (ssRNA)
RNA: UCUCUUUGUCGAUUAUCUCUU
B14: Id_ii_S1_P4E.2_K4.1_C4.2_[T-1A]_H4.1_A4.1_F4.1_T4.2_[T11G] (ssRNA)
RNA: UCUCUUCAUGUAUAUUAGGUCUCUU
B15: Id_ii_S1_P4E.2_K4.1_C4.2_[T-1A]_H4.1_A4.1_F4.1_T4.2_[T11C] (ssRNA)
RNA: UCUCUUCAUGUAUAUUAGCUCUCUU
B16: Id_ii_S1_P4E.2_K4.1_C4.2_[T-1A]_H4.1_A4.1_F4.1_T4.2 (ssRNA)
RNA: UCUCUUCAUGUAUAUUAGUUCUCUU
B17: Id_ii_S1_P4E.2_K4.1_C4.2_H4.1_A4.1_F4.1_T4.2_[G10C]_[T11C] (ssRNA)
RNA: UCUCUUCUUGUAUAUUACCUCUCUU
B18: Id_ii_S1_P4E.2_K4.1_C4.2_H4.1_A4.1_F4.1_T4.2_[G10C] (ssRNA)
RNA: UCUCUUCUUGUAUAUUACUUCUCUU
B19: Id_ii_S1_P4E.2_K4.1_C4.2_H4.1_A4.1_F4.1_T4.2_[G10T]_[T11G] (ssRNA)
RNA: UCUCUUCUUGUAUAUUAUGUCUCUU
B20: Ie_S1_P3E.2_K3.1_C3.2_H3.1_A3.1_[+6T]_F3.1_T3.2 (ssRNA)
RNA: UCUCUUCUUGUAUAUUAUAUCUCUU
B21: Id_ii_S1_P4E.2_K4.1_C4.2_H4.1_A4.1_F4.1_T4.2_[G10T] (ssRNA)
RNA: UCUCUUCUUGUAUAUUAUUUCUCUU
B22: Id_ii_S1_P4E.2_K4.1_C4.2_H4.1_A4.1_F4.1_T4.2_[G10A]_[T11C] (ssRNA)
RNA: UCUCUUCUUGUAUAUUAACUCUCUU
B23: Id_ii_S1_P4E.2_K4.1_C4.2_H4.1_A4.1_F4.1_T4.2_[G10A]_[T11A] (ssRNA)
RNA: UCUCUUCUUGUAUAUUAAAUCUCUU
B24: Ib_S1_P4E.1_K4.1_C4.1_H4.1_[A4C]_A4.1_[T5C]_F4.1_T4.1 (ssRNA)
RNA: UCUCUUUGUCCAUUAUCUCUU
B25: Id_ii_S1_P4E.2_K4.1_C4.2_H4.1_A4.1_F4.1_T4.2_[G10A] (ssRNA)
RNA: UCUCUUCUUGUAUAUUAAUUCUCUU
B26: Id_ii_S1_P4E.2_K4.1_C4.2_H4.1_A4.1_F4.1_T4.2_[T11C] (ssRNA)
RNA: UCUCUUCUUGUAUAUUAGCUCUCUU
B27: If_S1_P4E.2_K4.1_C4.2_H4.1_A4.1_F4.1_T4.2 (ssRNA)
RNA: UCUCUUCUUGUAUAUUAGUUCUCUU
B28: Id_ii_S1_P4E.3_K4.2_C4.2_[C-2G]_[T-1C]_H4.2_A4.1_F4.1_T4.2_[G10C]_[T11G] (ssRNA)
RNA: UCUCUUGCUAUAUAUUACGUCUCUU
B29: Id_ii_S1_P4E.3_K4.2_C4.2_[C-2G]_[T-1C]_H4.2_A4.1_F4.1_T4.2_[G10C]_[T11C] (ssRNA)
RNA: UCUCUUGCUAUAUAUUACCUCUCUU
B30: Id_ii_S1_P4E.3_K4.2_C4.2_[C-2G]_[T-1C]_H4.2_A4.1_F4.1_T4.2_[G10C]_[T11A] (ssRNA)
RNA: UCUCUUGCUAUAUAUUACAUCUCUU
B31: Id_ii_S1_P4E.3_K4.2_C4.2_[C-2G]_[T-1C]_H4.2_A4.1_F4.1_T4.2_[G10C] (ssRNA)
RNA: UCUCUUGCUAUAUAUUACUUCUCUU

Molecular target: T1, PUF4 RNA-binding domain
Experiment: Mg; RNA-MaP; 20 mM Na-HEPES pH 7.4, 30 mM KOAc, 0.75 mM MgCl2, 0.1% Tween-20, 5% glycerol, 0.1 mg/mL BSA, 2 mM DTT; 25 C; 0.0125-409.6 nM protein
Details: tags: N-His6-TEV cleaved; C-SNAP kept, Cy3B-labelled; label: tethered on chip by stalled RNA polymerase

Row | Binder | Kd [nM]
1 | B1 | 1.26
2 | B2 | 117
3 | B3 | 0.693
4 | B4 | 0.262
5 | B5 | 0.916
6 | B6 | 1.07
7 | B7 | 0.967
8 | B8 | 0.915
9 | B9 | 2.41
10 | B10 | 1.15
11 | B11 | 1.57
12 | B12 | 1.1
13 | B13 | 336
14 | B14 | 1.02
15 | B15 | 0.425
16 | B16 | 0.326

Row | Binder | Kd [nM]
17 | B17 | 0.733
18 | B18 | 0.702
19 | B19 | 0.808
20 | B20 | 0.724
21 | B21 | 0.541
22 | B22 | 0.862
23 | B23 | 0.971
24 | B24 | 20.5
25 | B25 | 0.76
26 | B26 | 0.287
27 | B27 | 0.286
28 | B28 | 56.3
29 | B29 | 61.4
30 | B30 | 44.4
31 | B31 | 30.6
